Experimental data: paper PMC10874388, “Cyclic peptides discriminate BCL-2 and its clinical mutants from BCL-XL by engaging a single-residue discrepancy” (Nature Communications, 2024)
Starred links: 1 amine or outer side, 2 acyl side, 3 side chain; linkers in the order of their positions; H or OH if unused. Positions of bridges follow the written chain, without caps; N, C: chain ends. Residues, ends and D or L forms follow the SMILES beside them. Primed or numbered codes have the meaning given here. No end group written: not given here. *: point of attachment. X1 = O=C(C[*:2])NCCNC(=O)c1ccc(C2=N[C@H](C(=O)[*:1])CS2)cc1; FITC = O=C1OC2(c3ccc(O)cc3Oc3cc(O)ccc32)c2ccc(NC(=S)*)cc21; cADT = 2-aryl-4,5-dihydrothiazole (ADT) linker; FITC′ = fluorescein isothiocyanate; ADT (ClAc-3) = not defined here

B1: cp3 (peptide)
peptide: CPIRYPWDVEC
modifications: linker 1-11 via cADT (inferred)
notes: cyclic peptide from the second phage library CPXRYXWDXXC screened against BCL-XL; they agree with P6, V9 and E10 named in the text
B2: chimeric human BCL-2 (residues 1-50 and 92-207, residues 35-50 replaced with residues 33-48 of BCL-XL) (domain or fragment, UniProt P10415 1-34, looked up)
chain: MAHAGRTGYDNREIVMKYIHYKLSQRGYEWDAGDNRTEAPEGTESEMETPVVHLTLRQAGDDFSRRYRRDFAEMSSQLHLTPFTARGRFATVVEELFRDGVNWGRIVAFFEFGGVMCVESVNREMSPLVDNIALWMTEYLNRHLHTWIQDNGGWDAFVELYGPSMR
modifications: biotin (biotinylated for SPR; site not stated)
notes: BCL-2, human, residues 1-34 of the chimera (internal loop 51-91 removed; residues 35-50 replaced with residues 33-48 of BCL-XL); BCL-XL, human, residues 33-48, in place of BCL-2 residues 35-50; BCL-2, human, residues 92-207; Biotinylated for SPR; used as such for crystals and fluorescence polarisation; also called BCL-2 WT; source: E. coli BL21 (DE3), purified (Ni-NTA, Superdex 75, RESOURCE Q, …)
B3: cp2 (peptide)
peptide: CPIRYEWDEFC
modifications: linker 1-11 via cADT (inferred)
notes: cyclic peptide from the second phage library CPXRYXWDXXC screened against BCL-2; they agree with I3, E6, E9 and F10 named in the text

Tests used:
Jurkat cells [1] = format: cell-based
Protocol: Supplementary Figure 10 Functional mechanism of CPs. a. IC50 values of venetoclax against A549, MGC-803 and PANC-1 cells, measured after 48 h treatment by a CellTiter-Glo assay and calculated using Prism 7.0 by a nonlinear-fit method. Data are presented as mean ± s.d.; n= 6 biological replicates. b. Western blot detecting the protein expression levels of BCL-2 and BCL-XL in A549, MGC-803, Daudi and Jurkat cells. c-d. Western blot detecting the protein expression levels of BCL-2 and BCL-XL in El4 cells (c) and RS4:11 cells (d). e. Western blot verifying the protein expression levels of exogenous BCL-2 in normal A549 cells (control) and those stably overexpressing BCL-2 WT or G101V mutant. f. qPCR results testing the overexpression of BCL-2 WT or G101V mutant in A549 stable cells. Data are presented as mean ± s.d.; n= 6 biological replicates; one-way ANOVA with Dunnett’s multiple comparisons test. g. Cell viability assay of Jurkat cells after 48 h treatment with DMSO, cp1-FITC, cp6-FITC, respectively. P1 represents the percentage of active cells. h. FITC signal tests after 48 h treatment with DMSO, cp1-FITC, cp6-FITC, respectively. P4 represents cells with the FITC signal. i-k. Structures of cp1-TAT, cp2-TAT and cp3-TAT. […]

RS4:11 cells = test: Cell viability assay (CellTiter-Glo), RS4:11; format: cell-based; details: Homo sapiens, RS4-11; 48 h treatment, CellTiter-Glo; small-molecule inhibitors, cells marked (nM)
In short: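 Compounds added in serum-free medium for 4 h (RS4:11: 6 h), then FBS brought to 10% and incubation continued to 24 h or 48 h total at 37 °C, 5% CO2. Viability by CellTiter-Glo 2.0 luminescence; IC50 calculated.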

El4 cells = test: Cell viability assay (CellTiter-Glo), El4; format: cell-based; details: Mus musculus, 48 h treatment, NO = no inhibition detected
Protocol: (§1) The cell lines Jurkat (TIB-152), El4 (TIB-39), Daudi (ccl-213), RS4:11 (crl-1873), A549 (ccl-185), HepG2 (hb-8065) and PANC-1 (crl-1469) were purchased from ATCC (American Type Culture Collection), and MGC-803 (C6582) was purchased from Beyotime (https://www.beyotime.com/product/C6582.htm). […] Daudi and RS4:11 cells were cultured in RPMI-1640 medium (HyClone, SH30809.01) and 10% FBS (Gibco, 10099-141), whereas HepG2, MGC-803 and PANC-1 cells were cultured in MDEM (HyClone, SH30243.01). Cells were maintained at 37 °C under a humidified, 5% (v/v) CO2-containing atmosphere.
(§2) Cell viability was measured using CellTiter-Glo® 2.0 Reagent (Promega, G9242). […] After different inhibitors were added into serum-free medium and cultured for 4 h (RS4:11 for 6 h), FBS were supplemented to 10% and then incubated totally for 24 h or 48 h. Finally, the IC50 values were calculated based on measurements using a microplate reader (Thermo, Varioskan LUX). Statistical analysis was performed using software GraphPad Prism 7.0.

[2] = parameters: method as in PMID 23410971; details: attributed to binding to BCL-XL; cited from earlier work
Jurkat cells [3] = test: Cell viability assay (CellTiter-Glo), Jurkat; format: cell-based; details: Homo sapiens, 48 h treatment, CellTiter-Glo
Protocol: as §1, §2

Daudi cells = test: Cell viability assay (CellTiter-Glo), Daudi; format: cell-based; details: Homo sapiens, Daudi, 48 h, 48 h treatment, CellTiter-Glo
Protocol: as §1, §2

BCL-2-F104L = biological target: T1, BCL-2-F104L (human, UniProt P10415 1-34; Q07817 33-48; P10415 92-207, F104L, biotin (biotinylated for SPR; site not stated)); test: SPR; Biacore T200; biotinylated proteins immobilised on a CAP sensor chip; peptides flowed in multiple cycles (25-12800 nM, depending on the peptides) at 30 uL/min; 10 mM PBS, 50 uM EDTA, 0.05% Tween-20, 25 °C; affinity fitting, 1:1 binding model; details: both partners purified
T1 construct: BCL-2, human, residues 1-34 of the chimera, as m6; BCL-XL, human, residues 33-48, in place of BCL-2 residues 35-50; BCL-2, human, residues 92-207; Chimera m6 with F104L, a drug-resistant mutation found in a mouse model (residue number of the human protein); also called BCL-2 F104L mutant; source: E. coli BL21 (DE3), purified (Ni-NTA, Superdex 75, RESOURCE Q, Superdex 200)

BCL-2-D111A = biological target: T2, BCL-2-D111A (human, UniProt P10415 1-34; Q07817 33-48; P10415 92-207, D111A, biotin (biotinylated for SPR; site not stated)); test: as above; details: both partners purified
T2 construct: BCL-2, human, residues 1-34 of the chimera, as m6; BCL-XL, human, residues 33-48, in place of BCL-2 residues 35-50; BCL-2, human, residues 92-207; Chimera m6 with the point mutation D111A made by mutagenic PCR; also called BCL-2 D111A mutant; source: E. coli BL21 (DE3), purified (Ni-NTA, Superdex 75, RESOURCE Q, Superdex 200)
T2 sequence (P10415 other isoform, or with tags, fused parts or gaps D111A | D111A | D111A D111A): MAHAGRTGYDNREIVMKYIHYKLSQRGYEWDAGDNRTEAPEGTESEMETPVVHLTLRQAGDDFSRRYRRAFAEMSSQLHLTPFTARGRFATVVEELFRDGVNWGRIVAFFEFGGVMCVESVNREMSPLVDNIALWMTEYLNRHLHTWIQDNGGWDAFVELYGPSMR

[4] = biological target: T3, human BCL-XL (residues 1-210, with 27-81 and 210-233 removed) (human, UniProt Q07817-1 1-209, 27-81 removed, biotin (biotinylated for SPR; site not stated)); test: as above; details: both partners purified
T3 construct: BCL-XL, human; printed as residues 1-210, with 27-81 and 210-233 removed (so the last residue is 209 or 210); source: E. coli BL21 (DE3), purified (Ni-NTA, Superdex 75, RESOURCE Q, Superdex 200)
T3 sequence (Q07817 other isoform, or with tags, fused parts or gaps 27-81 removed | 27-81 removed): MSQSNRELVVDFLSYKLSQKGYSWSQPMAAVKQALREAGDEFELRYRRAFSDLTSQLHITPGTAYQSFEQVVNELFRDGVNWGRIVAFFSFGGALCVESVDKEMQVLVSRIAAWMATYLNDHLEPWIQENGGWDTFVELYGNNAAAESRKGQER

BCL-w (residues 6-152) = biological target: T4, BCL-w (residues 6-152) (human, UniProt Q92843 6-152, biotin (biotinylated for SPR; site not stated)); test: as above; details: both partners purified
T4 construct: source: E. coli BL21 (DE3), purified (Ni-NTA, Superdex 75, RESOURCE Q, Superdex 200)
T4 sequence (looked up): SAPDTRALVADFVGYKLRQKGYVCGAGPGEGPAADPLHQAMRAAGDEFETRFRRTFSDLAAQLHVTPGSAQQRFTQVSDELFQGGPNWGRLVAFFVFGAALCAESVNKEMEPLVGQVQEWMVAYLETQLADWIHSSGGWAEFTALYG

BCL-2-G101V = biological target: T5, BCL-2-G101V (human, UniProt P10415 1-34; Q07817 33-48; P10415 92-207, G101V, biotin (biotinylated for SPR; site not stated)); test: as above; details: both partners purified
T5 construct: BCL-2, human, residues 1-34 of the chimera, as m6; BCL-XL, human, residues 33-48, in place of BCL-2 residues 35-50; BCL-2, human, residues 92-207; Chimera m6 with the venetoclax-resistant clinical mutation G101V; also called BCL-2 G101V mutant; source: E. coli BL21 (DE3), purified (Ni-NTA, Superdex 75, RESOURCE Q, Superdex 200)
T5 sequence (P10415 other isoform, or with tags, fused parts or gaps G101V | G101V | G101V G101V): as the sequence (P10415 other isoform, or with tags, fused parts or gaps D111A | D111A | D111A D111A) above, with G60V, A70D counted along it

BCL-2-D103Y = biological target: T6, BCL-2-D103Y (human, UniProt P10415 1-34; Q07817 33-48; P10415 92-207, D103Y, biotin (biotinylated for SPR; site not stated)); test: as above; details: both partners purified
T6 construct: BCL-2, human, residues 1-34 of the chimera, as m6; BCL-XL, human, residues 33-48, in place of BCL-2 residues 35-50; BCL-2, human, residues 92-207; Chimera m6 with the clinical mutation D103Y; source: E. coli BL21 (DE3), purified (Ni-NTA, Superdex 75, RESOURCE Q, Superdex 200)
T6 sequence (P10415 other isoform, or with tags, fused parts or gaps D103Y | D103Y | D103Y D103Y): as the sequence (P10415 other isoform, or with tags, fused parts or gaps D111A | D111A | D111A D111A) above, with D62Y, A70D counted along it

[5] = biological target: B2; test: as above; details: both partners purified
cp2-F = biological target: T7, cp2-F (linker 1-11 via ADT (ClAc-3) (inferred); reading uncertain; also: modified by ClAc-3, printed as CPIRYEWDEFCG{K(FITC)}); test: fluorescence polarisation; direct binding: 20 nM FITC-labelled peptide, protein 60-1000 nM, 1x PBS pH 7.4, room temperature, 10 min; details: both partners purified
T7 construct: also called cp2-FITC; source: synthetic peptide
T7 peptide: CPIRYEWDEFCGK(FITC′)

Molecule	Penetration efficiency (FITC signal in cells) (Jurkat cells [1])	Kd (BCL-2-F104L)	Kd (BCL-2-D111A)	Kd [4]	Kd (BCL-w (residues 6-152))	Kd (BCL-2-G101V)	Kd (BCL-2-D103Y)	Kd [5]	other results
C[C@@H]1NC(=O)[C@@H]2CCCN2C(=O)[C@@H]2CSC(=N2)c2ccc(cc2)C(=O)NCCNC(=O)CSC[C@@H](C(=O)NCC(=O)N[C@@H](CCCCNC(=S)Nc2ccc3c(c2)C(=O)OC32c3ccc(O)cc3Oc3cc(O)ccc32)C(N)=O)NC(=O)[C@H](CCC(=O)O)NC(=O)[C@H](Cc2ccc(O)cc2)NC(=O)[C@H](CC(=O)O)NC(=O)[C@H](Cc2c[nH]c3ccccc23)NC(=O)CNC(=O)[C@H](Cc2ccc(O)cc2)NC(=O)[C@H](CCCNC(=N)N)NC1=O [cp1-FITC] (PARYGWDYECGK(FITC)-NH2; linker N-10 via X1)	relatively low penetration efficiency	–	–	–	–	–	–	–	–
cp6-FITC: FITC-labeled cp6; CPARYFWDYKCGK(FITC) (CPARYFWDYKCGK(FITC′); not fully specified (bridges); printed as CPARYFWDYKCGK(FITC); cysteine pairing not given here)	relatively low penetration efficiency	–	–	–	–	–	–	–	–
CC1(C)CCC(c2ccc(Cl)cc2)=C(CN2CCN(c3ccc(C(=O)NS(=O)(=O)c4ccc(N[C@H](CCN5CCOCC5)CSc5ccccc5)c(S(=O)(=O)C(F)(F)F)c4)cc3)CC2)C1 [ABT-263, navitoclax]	–	–	–	–	–	–	–	–	IC50 (RS4:11 cells): 0.4 ± 0.1 nM; IC50 (El4 cells): > 100000 nM; Thrombocytopenia [2]: dose-dependent thrombocytopenia; IC50 (Jurkat cells [3]): 8500 ± 500 nM; IC50 (Daudi cells): 13500 ± 1500 nM
B1	–	710 nM	90 nM	90 nM	220 nM	660 nM	340 nM	240 nM	–
B2	–	–	–	–	–	–	–	–	binding result (cp2-F): binds
B3	–	260 nM	120 nM	730 nM	1450 nM	300 nM	210 nM	200 nM	–
